The target in experiment [1] is N-terminally fluorescein-labeled CEP55 ZF mutant E460A (human) (UniProt Q53EZ4). The experiment can be described thus: fluorescence polarisation.
Experiment [2] concerns the target CEP55 His-NOA (His-tag version of the human CEP55 NOA fragment, residues 304–396) (human) (UniProt Q53EZ4). In words: BLI.
Experiment [3] concerns the target mixture of biotinylated K63 poly-ubiquitin chains (Ub2-7) (UniProt P0CG48). The experiment can be described thus: BLI. In general terms: In BLI a coated tip is dipped into the sample, and binding shifts an interference pattern.

N-terminally fluorescein-labeled CEP55 ZF mutant E460A (human), sequence (Q53EZ4 435-464 E460A): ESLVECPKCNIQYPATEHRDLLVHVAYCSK
CEP55 His-NOA (His-tag version of the human CEP55 NOA fragment, residues 304–396) (human), sequence (Q53EZ4 304-396): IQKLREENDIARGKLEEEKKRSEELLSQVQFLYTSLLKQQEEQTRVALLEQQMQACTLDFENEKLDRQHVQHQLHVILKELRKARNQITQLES

The substance “mono-ubiquitin (from UniProt P0CG48 1-76) (natural protein)” registered a fold weaker affinity than WT in experiment [1] of 20 fold.

In experiment [2], “K63-linked tetra-ubiquitin (Ub4) (from UniProt P0CG48 1-76) (complex)” registered a fold by which the KD is higher than that of M1-linked Ub4 of 30 fold.

Broadly, the Kd is the free concentration of one partner at which half of the binding sites on the other are occupied at equilibrium, for simple one-to-one binding. With “Strep-tag II CEP55 ZF (StrepII-tag version of CEP55 ZF peptide, residues 435–464) (from UniProt Q53EZ4-1 435-464)”, the Kd in experiment [3] was 2100 nM.

The record behind these values is article PMC6817665.
